T1: p105 (Homo sapiens, UniProt P19838)
T1 sequence (P19838 1-968): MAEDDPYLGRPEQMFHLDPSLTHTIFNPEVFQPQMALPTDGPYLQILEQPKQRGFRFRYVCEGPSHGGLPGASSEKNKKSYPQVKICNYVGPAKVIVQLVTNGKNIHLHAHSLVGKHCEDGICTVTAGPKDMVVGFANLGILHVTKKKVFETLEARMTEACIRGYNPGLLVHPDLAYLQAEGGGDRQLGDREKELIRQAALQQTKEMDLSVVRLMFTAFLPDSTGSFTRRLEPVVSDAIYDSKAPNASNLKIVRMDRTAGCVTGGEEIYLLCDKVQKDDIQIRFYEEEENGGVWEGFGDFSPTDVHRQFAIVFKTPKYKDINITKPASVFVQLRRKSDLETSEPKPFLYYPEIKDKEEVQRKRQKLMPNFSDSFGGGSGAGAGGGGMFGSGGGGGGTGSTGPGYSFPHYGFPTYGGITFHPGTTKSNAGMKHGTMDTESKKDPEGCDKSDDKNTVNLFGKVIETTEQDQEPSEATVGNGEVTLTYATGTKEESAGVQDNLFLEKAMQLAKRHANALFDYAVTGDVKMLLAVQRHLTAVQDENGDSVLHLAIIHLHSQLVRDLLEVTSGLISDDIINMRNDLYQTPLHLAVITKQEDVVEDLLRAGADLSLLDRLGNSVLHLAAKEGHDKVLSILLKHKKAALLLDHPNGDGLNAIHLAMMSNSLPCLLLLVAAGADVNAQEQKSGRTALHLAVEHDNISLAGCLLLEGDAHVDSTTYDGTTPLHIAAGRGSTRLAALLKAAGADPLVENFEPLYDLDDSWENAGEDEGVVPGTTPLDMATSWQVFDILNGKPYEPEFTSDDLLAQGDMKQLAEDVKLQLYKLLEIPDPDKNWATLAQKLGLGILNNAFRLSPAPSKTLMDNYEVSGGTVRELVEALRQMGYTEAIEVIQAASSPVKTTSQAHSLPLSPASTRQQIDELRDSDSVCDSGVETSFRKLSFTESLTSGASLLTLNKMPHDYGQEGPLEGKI


Legend:
[1] = biological target: T1, p105; test: Ubiquitination of p105 by purified KPC1 species in cell-free conjugation assay; format: biochemical; conditions: reconstituted cell-free system, in vitro translated 35S-labeled p105, purified Ub, E1, E2, UbAl, ATP
Description: FIGS. 4A and 4B represent western blots showing in vitro ubiquitination of p105 by mutated species of KPC1: FIG. 4A: In vitro translated and ^35S-labeled p105 was ubiquitinated by purified KPC1-Δ1-967-6xHIS (lanes 2-4) or KPC1-Δ1-974-6xHIS (lanes 5-7) in a reconstituted cell-free system. 4B) In vitro translated and ^355-labeled p105 was ubiquitinated by purified KPC1-Δ1-967-6xHIS (lanes 2,5,6), KPC1-Δ1-974-6xHIS (lane 3), KPC1-Δ967-1043-6xHIS (lane 4), WILVRLW-KPC1-Δ1-1039-6xHIS (lanes 7-8) or WILVRLW-KPC1-Δ1-1061-6xHIS (lanes 9-10) in a reconstituted cell-free system.
In order to assess if the interaction between two proteins leads to the conjugation of the substrate p105, ubiquitination reaction was performed in cell free system. The conjugation reaction was carried out in the presence of purified Ub, E1, E2, UbAl, ATP and KPC1—either wild-type or different mutant species. Samples were resolved via SDS-PAGE and the 35S-labeled p105 and its adducts were visualized using autoradiography. […] In addition, the shorter versions of KPC1 in which the 7 amino acids sequence were brought closer to RING domain, the active site of the enzyme were prepared. Both truncated KPC1 proteins that harbor the 7 amino acid sequence, WILVRLW-KPC1-Δ1-1039 (SEQ ID. No. 6) and WILVRLW-KPC1-Δ1-1061 (SEQ ID. No. 7), modified p105 (FIG. 4B, lanes 7-10).

[2] = test system: glioblastoma U87-MG tumor; test: Growth of U87-MG tumor xenografts overexpressing KPC1 species in nude mice; format: in vivo; conditions: overexpression in U87-MG cells injected to nude mice; growth rates and weights of xenografts, three weeks after inoculation
Description: FIG. 8A and FIG. 8B depict growth rates and weights of tumor xenografts grown in nude mice, and derived from U87-MG expressing V0 (control), Myc-KPC1 or Flag-WILVRLW-KPC1Δ1-1039 (SEQ ID NO: 6).
Growth rates and weights (FIG. 8B) of tumor xenografts grown in nude mice, and derived from U87-MG expressing VO (control), Myc-KPC1, and Flag-WILVRLW-KPC1Δ1-1039 (SEQ ID. No. 6).

[3] = biological target: T1, p105; test: Co-immunoprecipitation (Co-IP) of KPC1 species with p105-HA from transfected HEK293T cells; format: binding; parameters: HA; expressed in transfected cells; host or cells: HEK293T; conditions: anti-FLAG immunoprecipitation, anti-NF-κB1 western blot, listed as full-length KPC1
Description: FIG. 1B is a western blot showing the following: HEK293T cells were transfected with cDNAs coding for p105-HA (lanes 1-6), along with the different KPC1 species as following: W.T KPC1 (lane 1), KPC1Δ969-1314 (lane 2), KPC1Δ1-438 & 1039-1314 (lane 3), KPC1Δ1-967 (lane 4) and KPC1Δ1-1042 (lane 5). Lane 6 was transfected with an empty vector. KPC1 species were immunoprecipitated using immobilized FLAG antibodies, resolved by SDS-page, and NF-κB1 and KPC1 proteins were visualized by anti-NF-κB1 (FIG. 1B (upper)) and anti-FLAG (FIG. 1B (bottom)) antibodies, respectively. 10% of the total cell lysate was analyzed for the expression of p105-HA.
FIG. 2B is a western blot. HEK293T cells were transfected with cDNAs coding for p105-HA (lanes 1-7), along with different KPC1 species as following: WT KPC1 (lane 1), KPC1Δ1-967 (lane 2), KPC1Δ967-1043 (lane 3), KPC1Δ1-973 (lane 4), KPC1Δ1-1017 (lane 5) and KPC1ΔCC domain (lane 6). Lane 7 represents cells that were transfected with empty vector. KPC1 species were immunoprecipitated using immobilized FLAG antibodies, resolved by SDS-page. NF-κB1 and KPC1 proteins were visualized with anti-NF-κB1 (FIG. 2B (i)) and anti-FLAG (FIG. 2B (ii)) antibodies, respectively. 10% of the total cell lysate was analyzed for the expression of p105-HA. FIGS. 3A and 3B: FIG. 3A is a schematic representation of KPC1 species used in the experiment shown in FIG. 3B that was directed to evaluating the region of KPC1 that is responsible for the interaction with p105.
FIG. 3B is a western blot. HEK293T cells were transfected with cDNAs coding for p105-HA (lanes 1-12), along with different KPC1 species as following: KPC1-FLAG (lane 1), WILVRLW-KPC1 Δ 1-1253 (SEQ ID NO: 8) (lane 2), ILVRLW-KPC1 Δ 1-1253 (SEQ ID NO: 10) (lane 3), LVRLW-KPC1 Δ 1-1253 (SEQ ID NO: 11) (lane 4), VRLW-KPC1 Δ 1-1253 (lane 5) (SEQ ID NO: 12), RLW-KPC1 Δ 1-1253 (lane 6) SEQ ID NO:13), KPC1 Δ 1-1253 (lane 7), WILVRL-KPC1 Δ 1-1253 (lane 8) (SEQ ID NO: 14), WILVR-KPC1 Δ 1-1253 (SEQ ID NO: 15) (lane 9), WILV-KPC1 Δ 1-1253 (SEQ ID NO: 16) (lane 10), WIL-KPC1 Δ 1-1253 (SEQ ID NO: 17 (lane 11). Lane 12 represents cells that were transfected with empty vector. KPC1 species were immunoprecipitated using immobilized FLAG antibodies, resolved by SDS-page. NF-κB1 and KPC1 proteins were visualized by anti-NF-κB1 (FIG. 3B, (i, ii) and anti-FLAG (FIG. 3B, (iii) antibodies, respectively. 10% of the total cell lysate was analyzed for the expression of p105-HA (FIG. 3B, (ii)).
HEK293T cells were transiently transfected with the various KPC1 species along with p105-HA using the j etPEI reagent. 48 hours after transfection, the cells were harvested and lysed with RIPA buffer [150 mM NaCl, 0.5% sodium deoxycholate, 50 mM Tris-HCl (pH 8.0), 0.1% SDS, and 1% NP-40, supplemented with freshly added protease inhibitors mixture]. KPC1 species proteins were immunoprecipitated with immobilized anti-FLAG, with subsequent washing of the beads five times with RIPA buffer. The immunoprecipitated proteins were resolved by SDS-PAGE (10%, FIGS. 1A, 1B, 2A and 2B, with a gel gradient, of 4-20%; FIGS. 3A and 3B), and blotted onto nitrocellulose (FIGS. 1A, 1B, 2A and 2B) or PVDF (FIGS. 3A and 3B) membranes. p105 and KPC1 species were visualized using anti-NF-κB1 or anti-FLAG antibodies, respectively.
Identification of the region of KPC1 that is responsible for the interaction with p105. In order to identify the region of KPC1 that is responsible for the interaction with p105, several truncated segments of the DNA sequence of the KPC1 protein were cloned. The truncated segments were inserted into the pCAGGS expression vector to analyze their interaction with p105 by co-immunoprecipitation (Co-IP) from cells. HEK 293T cells were transfected with cDNAs coding for p105-HA, along with different fragments of KPC1 (FIG. 1A). Species of KPC1 were immunoprecipitated using an immobilized anti-Flag antibody. […]

ubiquitination of p105 [1] | Molecule | tumor growth [2] | interaction with p105 (Co-IP) [3]
modified p105 | WILVRLW-KPC1-Δ1-1039: truncated KPC1 with the 7 amino acid sequence brought closer to RING domain, SEQ ID NO: 6 (protein) WILVRLWAFSEFIGMIQEIQQAAERLERNFVDSRQLKVCATCFDLSVSLLRVLEMTITLVPEIFLDWTRPTSEMLLRRLAQLLNQVLNRVTAERNLFDRVVTLRLPGLESVDHYPILVAVTGILVQLLVRGPASEREQATSVLLADPCFQLRSICYLLGQPEPPAPGTALPAPDRKRFSLQSYADYISADELAQVEQMLAHLTSASAQAAAASLPTSEEDLCPICYAHPISAVFQPCGHKSCKACINQHLMNNKDCFFCKTTIVSVEDWEKGANTSTTSSAA | repressed glioblastoma U87-MG tumor growth | 
 | KPC1: wild-type ubiquitin ligase KPC1 (RNF123), SEQ ID NO: 2 (protein) MASKGAGMSFSRKSYRLTSDAEKSRVTGIVQEKLLNDYLNRIFSSSEHAPPAATSRKPLNFQNLPEHLDQLLQVDNEEEESQGQVEGRLGPSTVVLDHTGGFEGLLLVDDDLLGVIGHSNFGTIRSTTCVYKGKWLYEVLISSQGLMQIGWCTISCRFNQEEGVGDTHNSYAYDGNRVRKWNVTTTNYGKAWAAGDIVSCLIDLDDGTLSFCLNGVSLGTAFENLSRGLGMAYFPAISLSFKESVAFNFGSRPLRYPVAGYRPLQDPPSADLVRAQRLLGCFRAVLSVELDPVEGRLLDKESSKWRLRGQPTVLLTLAHIFHHFAPLLRKVYLVEAVLMSFLLGIVEKGTPTQAQSVVHQVLDLLWLFMEDYEVQDCLKQLMMSLLRLYRFSPIVPDLGLQIHYLRLTIAILRHEKSRKFLLSNVLFDVLRSVVFFYIKSPLRVEEAGLQELIPTTWWPHCSSREGKESTEMKEETAEERLRRRAYERGCQRLRKRIEVVEELQVQILKLLLDNKDDNGGEASRYIFLTKFRKFLQENASGRGNMPMLCPPEYMVCFLHRLISALRYYWDEYKASNPHASFSEEAYIPPQVFYNGKVDYFDLQRLGGLLSHLRKTLKDDLASKANIVIDPLELQSTAMDDLDEDEEPAPAMAQRPMQALAVGGPLPLPRPGWLSSPTLGRANRFLSTAAVSLMTPRRPLSTSEKVKVRTLSVEQRTREDIEGSHWNEGLLLGRPPEEPEQPLTENSLLEVLDGAVMMYNLSVHQQLGKMVGVSDDVNEYAMALRDTEDKLRRCPKRRKDILAELTKSQKVFSEKLDHLSRRLAWVHATVYSQEKMLDIYWLLRVCLRTIEHGDRTGSLFAFMPEFYLSVAINSYSALKNYFGPVHSMEELPGYEETLTRLAAILAKHFADARIVGTDIRDSLMQALASYVCYPHSLRAVERIPEEQRIAMVRNLLAPYEQRPWAQTNWILVRLWRGCGFGYRYTRLPHLLKTKLEDANLPSLQKPCPSTLLQQHMADLLQQGPDVAPSFLNSVLNQLNWAFSEFIGMIQEIQQAAERLERNFVDSRQLKVCATCFDLSVSLLRVLEMTITLVPEIFLDWTRPTSEMLLRRLAQLLNQVLNRVTAERNLFDRVVTLRLPGLESVDHYPILVAVTGILVQLLVRGPASEREQATSVLLADPCFQLRSICYLLGQPEPPAPGTALPAPDRKRFSLQSYADYISADELAQVEQMLAHLTSASAQAAAASLPTSEEDLCPICYAHPISAVFQPCGHKSCKACINQHLMNNKDCFFCKTTIVSVEDWEKGANTSTTSSAA | repressed glioblastoma U87-MG tumor growth | an interaction between p105 and the full-length KPC1 protein was observed
